Reference: US20190083616A1 (UNIVERSITY OF TENESSEE RESEARCH FOUNDATION, published 2019)

Columns and labels:
Vκ4Len(1-22) peptide = Vκ4Len(1-22) peptide (UniProt P06312); assay: EuLISA, peptide-coated wells, mAb titrated from 100 nM
[1] = molecular target: T1, peptope p66 (p5+14 - SVTVVT linker - 11-1F4 12-mer epitope KHYAAFPENLLI); assay: EuLISA: rVλ6Wil fibrils on the plate, p66 added and washed, murine 11-1F4 titrated 1:2 from 100 nM; 11-1F4 also binds the fibrils themselves at high concentration (FIG. 10)
T1 construct: also called peptide p66; 11-1F4 peptope
T1 peptide: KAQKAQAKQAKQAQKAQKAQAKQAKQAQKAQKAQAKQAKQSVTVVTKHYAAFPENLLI

Molecule murine monoclonal antibody 11-1F4 has an EC50 (Vκ4Len(1-22) peptide) of 0.5 nM.

B1: murine monoclonal antibody 11-1F4 (antibody, V domains shown)
VH: QVQLKESGPGLVAPSQSLSITCTVSGFSLSSYGVSWVRQPPGKGLEWLGVIWGDGSTNYHPNLMSRLSISKDISKSQVLFKLNSLQTDDTATYYCVTLDYWGQGTSVTVSS
VL: DVVMTQTPLSLPVSLGDQASISCRSSQSLVHRNGNTYLHWYLQKPGQSPKLLIYKVSNRFSGVPDRFSGSGSGTDFTLKISRVEAEDLGLYFCFQTTYVPNTFGGGTKLEIK
In the case of B1, the “EC50 (read off the curve)” value [1] is reported as roughly 0.8 nM.
